Where a chain is given by its changes, count along the chain named. Blank lines part the entries; values can stand above or below the binder they belong to.
Key:
DR3-8i [1] = molecular target: T1, DR3-8i (human); assay: BLI, IgG captured on protein A, DR3-8i in solution; Average
T1 construct: also called purified monomeric DR3-8i antigen protein
T1 chain: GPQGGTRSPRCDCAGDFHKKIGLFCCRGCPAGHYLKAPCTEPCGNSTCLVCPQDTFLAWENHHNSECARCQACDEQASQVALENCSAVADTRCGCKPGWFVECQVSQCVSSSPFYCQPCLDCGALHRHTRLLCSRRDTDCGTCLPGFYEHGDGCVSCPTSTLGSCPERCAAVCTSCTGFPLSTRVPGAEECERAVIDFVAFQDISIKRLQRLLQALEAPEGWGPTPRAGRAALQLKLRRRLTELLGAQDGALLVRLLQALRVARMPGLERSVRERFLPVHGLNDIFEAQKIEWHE

DR3-8i [2] = molecular target: T1, DR3-8i; assay: BLI, IgG captured on protein A, DR3-8i in solution; Experiment 1
[3] = molecular target: T2, human DR3 (TNFRSF25) expressed on cells (human, UniProt Q93038 25-417); assay: cell-based or functional assay
T2 sequence: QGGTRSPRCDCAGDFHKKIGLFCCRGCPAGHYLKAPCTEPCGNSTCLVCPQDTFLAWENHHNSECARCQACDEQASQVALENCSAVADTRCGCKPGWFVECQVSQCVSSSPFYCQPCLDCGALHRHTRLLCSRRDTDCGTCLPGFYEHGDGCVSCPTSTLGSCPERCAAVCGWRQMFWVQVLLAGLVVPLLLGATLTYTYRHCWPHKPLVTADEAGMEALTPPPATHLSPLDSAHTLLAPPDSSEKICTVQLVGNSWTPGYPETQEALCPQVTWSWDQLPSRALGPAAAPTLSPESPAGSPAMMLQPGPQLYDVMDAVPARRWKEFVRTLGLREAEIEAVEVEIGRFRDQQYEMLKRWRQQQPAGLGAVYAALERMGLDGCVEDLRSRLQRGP

DR3-8i [4] = molecular target: T1, DR3-8i; assay: BLI, IgG captured on protein A, DR3-8i in solution; Experiment 2

Signal (FLU) [3]: 2.23e+06 FLU
B2: VHg9/VLg1 (antibody, human IgG1, V domains shown)
VH: EVQLVESGGGLVKPGGSLRLSCAASGFTFSSYAMSWVRQAPGKGLEWVSTISDGDSYSYFPDSVKDRFTISRDNAKNSLYLQMNSLRAEDTAVYYCARDRIYGSVQYYAMDYWGQGTLVTVSS
VL: DVVMTQSPDSLAVSLGERATINCRASESVEFSGTSLMQWYQQKPGQPPKLLIYAASNVESGVPDRFSGSGSGTDFTLTISSLQAEDVVVYYCQQSRKLPYTFGGGTKVEIK

Signal (FLU) [3]: 3.35e+06 FLU
B5: VHg9/mVL (antibody, human IgG1, V domains shown)
VH: B2 VH
VL: DIVLTQSPASLAVSLGQRATISCRASESVEFSGTSLMQWYQQRPGLPPKLLIYAASNVESGVPARFSGSGSGTDFSLNIHPVEEDDIAMYFCQQSRKLPYTFGGGTKLEIN

Signal (FLU) [3]: 3.33e+06 FLU
B6: VHg9/VLg13 (antibody, human IgG1, V domains shown)
VH: B2 VH
VL: DIQMTQSPSSLSASVGDRVTITCRASESVEFSGTSLMQWYQQKPGKAPKLLIYAASNVESGVPSRFSGSGSGTDFTFTISSLQPEDIATYYCQQSRKLPYTFGQGTKLEIK

Signal (FLU) [3]: 2.32e+06 FLU
B9: VHg9/VLg6 (antibody, human IgG1, V domains shown)
VH: B2 VH
VL: DVVMTQSPPSLPVTPGEPASISCRASESVEFSGTSLMQWYLQKPGQSPQVLIYAASNVESGVPDRFSGSGSGTDFTLKISRVEAEDVGVYYCQQSRKLPYTFGQGTRLEIK

Signal (FLU) [3]: 2.54e+06 FLU
B11: VHg10/VLg1 (antibody, human IgG1, V domains shown)
VH: B2 VH with K13Q, A75S, S78T
VL: B2 VL

Kd (DR3-8i [1]): 0.246 nM | Kd (DR3-8i [2]): 0.233 nM | EC50 (pM), DR3 Jurkat reporter [3]: 634 pM | Signal (FLU) [3]: 3.08e+06 FLU | Kd (DR3-8i [4]): 0.259 nM
B20: VHg10/VLg5 (antibody, human IgG1, V domains shown)
VH: B2 VH with K13Q, A75S, S78T
VL: EIVLTQSPGTLSLSPGERGTLSCRASESVEFSGTSLMQWYQQKPGQAPRLLIYAASNVESGIPDRFSGSGSETDFTLTISRLEPEDLAVYYCQQSRKLPYTFGQGTRLEIK
notes: human IgG1

Kd (DR3-8i [1]): 0.181 nM | Kd (DR3-8i [2]): 0.175 nM | EC50 (pM), DR3 Jurkat reporter [3]: 132 pM | Signal (FLU) [3]: 3.56e+06 FLU | Kd (DR3-8i [4]): 0.188 nM
B21: VHg10/VLg12 (antibody, human IgG1, V domains shown)
VH: B2 VH with K13Q, A75S, S78T
VL: B20 VL with G9A, G19A, D64A, E72G, R81S, L87F, R107K
notes: human IgG1

Kd (DR3-8i [1]): 0.205 nM | Kd (DR3-8i [2]): 0.166 nM | EC50 (pM), DR3 Jurkat reporter [3]: 245 pM | Signal (FLU) [3]: 3.24e+06 FLU | Kd (DR3-8i [4]): 0.244 nM
B24: VHg10/VLg11 (antibody, human IgG1, V domains shown)
VH: B2 VH with K13Q, A75S, S78T
VL: B2 VL with V2I, V88A, G104Q, V108L
notes: human IgG1

Kd (DR3-8i [1]): 0.204 nM | Kd (DR3-8i [2]): 0.242 nM | EC50 (pM), DR3 Jurkat reporter [3]: 570 pM | Signal (FLU) [3]: 3.17e+06 FLU | Kd (DR3-8i [4]): 0.167 nM
B26: VHg10/VLg4 (antibody, human IgG1, V domains shown)
VH: B2 VH with K13Q, A75S, S78T
VL: B2 VL with N22S, G45R, P48L, V88A, G104Q, K107R, V108L
notes: human IgG1

Second part, the binder before the results:

B1: VHg9/VLg11 (antibody, human IgG1, V domains shown)
VH: B2 VH
VL: B2 VL with V2I, V88A, G104Q, V108L
notes: human IgG1
Kd (DR3-8i [1]): 0.188 nM | Kd (DR3-8i [2]): 0.192 nM | EC50 (pM), DR3 Jurkat reporter [3]: 261 pM | Signal (FLU) [3]: 3.27e+06 FLU | Kd (DR3-8i [4]): 0.184 nM

B3: VHg1/VLg5 (antibody, human IgG1, V domains shown)
VH: B2 VH with E1Q, E6Q, K13Q, A75S, S78T, A92S
VL: B20 VL
Signal (FLU) [3]: 1.99e+06 FLU

B4: VHg3/VLg5 (antibody, human IgG1, V domains shown)
VH: B2 VH with E6Q, T28K, V48L, T69I, A88V, A92G
VL: B20 VL
Signal (FLU) [3]: 2.43e+06 FLU

B7: VHg5/mVL (antibody, human IgG1, V domains shown)
VH: B2 VH with E1Q, V5Q, E6Q, K13Q, P14A, S30T, S49A, T69I, Y80F, Q115R
VL: B5 VL
Signal (FLU) [3]: 2.69e+06 FLU

B8: VHg1/VLg12 (antibody, human IgG1, V domains shown)
VH: B2 VH with E1Q, E6Q, K13Q, A75S, S78T, A92S
VL: B20 VL with G9A, G19A, D64A, E72G, R81S, L87F, R107K
notes: human IgG1
Kd (DR3-8i [1]): 0.0228 nM | Kd (DR3-8i [2]): 0.001 nM | EC50 (pM), DR3 Jurkat reporter [3]: 322 pM | Signal (FLU) [3]: 2.76e+06 FLU | Kd (DR3-8i [4]): 0.0445 nM

B10: VHg2/mVL (antibody, human IgG1, V domains shown)
VH: B2 VH with E1Q, V2M, E6Q, V37I, A97T, Q115R
VL: B5 VL
Signal (FLU) [3]: 2.57e+06 FLU

B12: VHg5/VLg5 (antibody, human IgG1, V domains shown)
VH: B2 VH with E1Q, V5Q, E6Q, K13Q, P14A, S30T, S49A, T69I, Y80F, Q115R
VL: B20 VL
Signal (FLU) [3]: 2.42e+06 FLU

B13: VHg6/mVL (antibody, human IgG1, V domains shown)
VH: B2 VH with E1Q, V5Q, E6Q, K13Q, S49A, K76R, Q115R
VL: B5 VL
Signal (FLU) [3]: 2.6e+06 FLU

B14: VHg1/mVL (antibody, human IgG1, V domains shown)
VH: B2 VH with E1Q, E6Q, K13Q, A75S, S78T, A92S
VL: B5 VL
Signal (FLU) [3]: 2.43e+06 FLU

B15: VHg3/VLg1 (antibody, human IgG1, V domains shown)
VH: B2 VH with E6Q, T28K, V48L, T69I, A88V, A92G
VL: B2 VL
Signal (FLU) [3]: 2.46e+06 FLU

B16: VHg2/VLg5 (antibody, human IgG1, V domains shown)
VH: B2 VH with E1Q, V2M, E6Q, V37I, A97T, Q115R
VL: B20 VL
Signal (FLU) [3]: 2.52e+06 FLU

B17: VHg3/VLg11 (antibody, human IgG1, V domains shown)
VH: B2 VH with E6Q, T28K, V48L, T69I, A88V, A92G
VL: B2 VL with V2I, V88A, G104Q, V108L
notes: human IgG1
Kd (DR3-8i [1]): 0.491 nM | Kd (DR3-8i [2]): 0.364 nM | EC50 (pM), DR3 Jurkat reporter [3]: 1230 pM | Signal (FLU) [3]: 2.38e+06 FLU | Kd (DR3-8i [4]): 0.618 nM

B18: VHg2/VLg11 (antibody, human IgG1, V domains shown)
VH: B2 VH with E1Q, V2M, E6Q, V37I, A97T, Q115R
VL: B2 VL with V2I, V88A, G104Q, V108L
notes: human IgG1
Kd (DR3-8i [1]): 0.0536 nM | Kd (DR3-8i [2]): 0.0636 nM | EC50 (pM), DR3 Jurkat reporter [3]: 136 pM | Signal (FLU) [3]: 2.9e+06 FLU | Kd (DR3-8i [4]): 0.0435 nM

B19: VHg6/VLg12 (antibody, human IgG1, V domains shown)
VH: B2 VH with E1Q, V5Q, E6Q, K13Q, S49A, K76R, Q115R
VL: B20 VL with G9A, G19A, D64A, E72G, R81S, L87F, R107K
notes: human IgG1
Kd (DR3-8i [1]): 0.157 nM | Kd (DR3-8i [2]): 0.227 nM | EC50 (pM), DR3 Jurkat reporter [3]: 134 pM | Signal (FLU) [3]: 2.47e+06 FLU | Kd (DR3-8i [4]): 0.0876 nM

B22: VHg6/VLg4 (antibody, human IgG1, V domains shown)
VH: B2 VH with E1Q, V5Q, E6Q, K13Q, S49A, K76R, Q115R
VL: B2 VL with N22S, G45R, P48L, V88A, G104Q, K107R, V108L
notes: human IgG1
Kd (DR3-8i [1]): 0.198 nM | Kd (DR3-8i [2]): 0.25 nM | EC50 (pM), DR3 Jurkat reporter [3]: 115 pM | Signal (FLU) [3]: 2.68e+06 FLU | Kd (DR3-8i [4]): 0.146 nM

B23: VHg2/VLg12 (antibody, human IgG1, V domains shown)
VH: B2 VH with E1Q, V2M, E6Q, V37I, A97T, Q115R
VL: B20 VL with G9A, G19A, D64A, E72G, R81S, L87F, R107K
notes: human IgG1
Kd (DR3-8i [1]): 0.121 nM | Kd (DR3-8i [2]): 0.0644 nM | EC50 (pM), DR3 Jurkat reporter [3]: 117 pM | Signal (FLU) [3]: 2.68e+06 FLU | Kd (DR3-8i [4]): 0.177 nM

B25: VHg3/VLg12 (antibody, human IgG1, V domains shown)
VH: B2 VH with E6Q, T28K, V48L, T69I, A88V, A92G
VL: B20 VL with G9A, G19A, D64A, E72G, R81S, L87F, R107K
notes: human IgG1
Kd (DR3-8i [1]): 0.4 nM | Kd (DR3-8i [2]): 0.39 nM | EC50 (pM), DR3 Jurkat reporter [3]: 1480 pM | Signal (FLU) [3]: 2.6e+06 FLU | Kd (DR3-8i [4]): 0.409 nM

From patent WO2025083273A1 (dated 2025)
